Source: patent publication US20240132857
Changes are numbered by the printed parent chain. In names and notes the source's numbering stands.

B1: Ube2N^D119A (protein)
chain: GMAGLPRRIIKETQRLLAEPVPGIKAEPDESNARYFHVVIAGPQDSPFEGGTFKLELFLPEEYPMAAPKVRFMTKIYHPNVDKLGRICLDILKDKWSPALQIRTVLLSIQALLSAPNPDAPLANDVAEQWKTNEAQAIETARAWTRLYAMNNI
B2: Ube2N^N123A (protein)
chain: B1 chain with A120D, N124A
B3: Ube2N^D124A (protein)
chain: B1 chain with A120D, D125A
B4: Ube2N^D119N (protein)
chain: B1 chain with A120N

Target: Ub^1-74, P0CG48
Sequence (P0CG48 whole entry, looked up, tested part not stated): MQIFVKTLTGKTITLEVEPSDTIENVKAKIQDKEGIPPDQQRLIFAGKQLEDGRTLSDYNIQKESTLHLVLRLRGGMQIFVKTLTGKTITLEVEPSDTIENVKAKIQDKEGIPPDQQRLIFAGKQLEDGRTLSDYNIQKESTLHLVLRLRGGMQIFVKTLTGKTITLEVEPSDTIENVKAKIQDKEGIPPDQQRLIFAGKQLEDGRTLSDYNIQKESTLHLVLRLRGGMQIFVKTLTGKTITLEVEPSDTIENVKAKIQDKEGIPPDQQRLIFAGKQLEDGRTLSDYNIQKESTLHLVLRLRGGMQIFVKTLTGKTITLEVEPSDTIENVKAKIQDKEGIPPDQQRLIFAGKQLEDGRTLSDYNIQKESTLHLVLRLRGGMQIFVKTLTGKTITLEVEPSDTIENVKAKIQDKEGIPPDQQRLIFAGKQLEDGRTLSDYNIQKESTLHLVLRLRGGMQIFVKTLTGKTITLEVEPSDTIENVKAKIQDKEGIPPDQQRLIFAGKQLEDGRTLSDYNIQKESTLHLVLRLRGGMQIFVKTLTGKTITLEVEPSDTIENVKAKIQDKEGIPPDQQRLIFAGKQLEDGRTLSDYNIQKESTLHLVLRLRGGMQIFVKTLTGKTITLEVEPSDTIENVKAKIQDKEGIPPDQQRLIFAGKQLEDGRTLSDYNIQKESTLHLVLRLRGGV

Row | Protein | KM of di-ubiquitin formation, fold increase against wild-type Ube2N | kcat of di-ubiquitin formation, fold reduction against wild-type Ube2N
1 | B1 | modestly increased the KM by ˜4 and ˜7-fold, respectively | Mutation to alanine reduced kcat 100-fold
2 | B2 |  | The ˜3-fold reduction in kcat
3 | B3 |  | The ˜3-fold reduction in kcat
4 | B4 | modestly increased the KM by ˜4 and ˜7-fold, respectively | mutation to asparagine 30-fold
